Data set [1] concerns the molecule itself. Description: cell-based or functional assay.
Data set [2] concerns the molecule itself. Kind of data set: crystal structure; hanging drop vapor diffusion, 18°C, 0.1 M MES pH 6.5, 1.1 M ammonium sulfate; two molecules in the asymmetric unit.

Where a chain is given by its changes, count along the chain named. In names and notes the source's numbering stands.

B1: FIC-1_(134-508) E274G/I298D (domain or fragment, C. elegans, UniProt Q23544 134-508, looked up)
chain: DEKRENDPAKVKEAILAAKAAGRSRKDGNLERAMTIMEHAMALAPTNPQILIEMGQIREMHNELVEADQCYVKALAYDPGNSEALVLRARTTPLVSAIDRKMLRSVHDLRDEFNHLQHSTALRRMMRETYFLYVYHTVAIGGNTLSLGQTRAILESGMVIPGKSDREHNEVIGMDAALRFLNCSLLSKEHDEISIDDILEMHRRVLGNADPVEAGRIRTTQVYVGRFTPVSPEYVMEQLKDIVDWLNDESTLTIDPIERAAIAHYKLVLVHPFTDGNGRTARLLLNLIMMRSGFPPVILPVETRAEYYASLHVANLGDLRPFVRYVAKHSEASIQRYIGAMKTSSDNILNSGDSKLTPEESEVSEKIEAECRAGN
As for B1, in data set [1], the “self-AMPylation of FIC-1 E274G/I298D relative to FIC-1 E274G (in vitro AMPylation with α33P-ATP, autoradiography)” value came out at 46% and the “target (histone H3) AMPylation by FIC-1 E274G/I298D relative to FIC-1 E274G (in vitro AMPylation with α33P-ATP, autoradiography)” value is 11%.

B2: FIC-1_(134-508) E274G (domain or fragment, C. elegans, UniProt Q23544 134-508, looked up)
chain: B1 chain with D165I
notes: C. elegans Fic protein FIC-1, residues 134-508, constitutively active mutant; transmembrane helix and membrane proximal domain excluded; Non-cleavable N-terminal 6x His tag; also called FIC-1 E274G; source: E. coli LOBSTR-RIL(DE3), purified (Ni-Sepharose, size-exclusion chromatography); not shown: His6, N-terminal, kept
Consider B2, for which the binding result in data set [2] was “binds”.

B3: FIC-1_(134-508) (domain or fragment, C. elegans, UniProt Q23544 134-508, looked up)
chain: B1 chain with G141E, D165I
notes: C. elegans Fic protein FIC-1, residues 134-508; transmembrane helix and membrane proximal domain excluded; also called FIC-1 wild type; FIC-1 wildtype (wt); source: E. coli LOBSTR-RIL(DE3), purified (Ni-Sepharose, size-exclusion chromatography); not shown: His6, N-terminal, kept
As for B3, the binding result in data set [2] is listed as “binds”.

The values are drawn from paper PMC4854385, “The Caenorhabditis elegans Protein FIC-1 Is an AMPylase That Covalently Modifies Heat-Shock 70 Family Proteins, Translation Elongation Factors and Histones” (PLoS Genetics, 2016).
